According to publication PMC8254828:

Biological target: 3XHA-ankyrin-G F1609R (UniProt G5E8K5)
UniProt G5E8K5, sequence (G5E8K5 whole entry F1609R): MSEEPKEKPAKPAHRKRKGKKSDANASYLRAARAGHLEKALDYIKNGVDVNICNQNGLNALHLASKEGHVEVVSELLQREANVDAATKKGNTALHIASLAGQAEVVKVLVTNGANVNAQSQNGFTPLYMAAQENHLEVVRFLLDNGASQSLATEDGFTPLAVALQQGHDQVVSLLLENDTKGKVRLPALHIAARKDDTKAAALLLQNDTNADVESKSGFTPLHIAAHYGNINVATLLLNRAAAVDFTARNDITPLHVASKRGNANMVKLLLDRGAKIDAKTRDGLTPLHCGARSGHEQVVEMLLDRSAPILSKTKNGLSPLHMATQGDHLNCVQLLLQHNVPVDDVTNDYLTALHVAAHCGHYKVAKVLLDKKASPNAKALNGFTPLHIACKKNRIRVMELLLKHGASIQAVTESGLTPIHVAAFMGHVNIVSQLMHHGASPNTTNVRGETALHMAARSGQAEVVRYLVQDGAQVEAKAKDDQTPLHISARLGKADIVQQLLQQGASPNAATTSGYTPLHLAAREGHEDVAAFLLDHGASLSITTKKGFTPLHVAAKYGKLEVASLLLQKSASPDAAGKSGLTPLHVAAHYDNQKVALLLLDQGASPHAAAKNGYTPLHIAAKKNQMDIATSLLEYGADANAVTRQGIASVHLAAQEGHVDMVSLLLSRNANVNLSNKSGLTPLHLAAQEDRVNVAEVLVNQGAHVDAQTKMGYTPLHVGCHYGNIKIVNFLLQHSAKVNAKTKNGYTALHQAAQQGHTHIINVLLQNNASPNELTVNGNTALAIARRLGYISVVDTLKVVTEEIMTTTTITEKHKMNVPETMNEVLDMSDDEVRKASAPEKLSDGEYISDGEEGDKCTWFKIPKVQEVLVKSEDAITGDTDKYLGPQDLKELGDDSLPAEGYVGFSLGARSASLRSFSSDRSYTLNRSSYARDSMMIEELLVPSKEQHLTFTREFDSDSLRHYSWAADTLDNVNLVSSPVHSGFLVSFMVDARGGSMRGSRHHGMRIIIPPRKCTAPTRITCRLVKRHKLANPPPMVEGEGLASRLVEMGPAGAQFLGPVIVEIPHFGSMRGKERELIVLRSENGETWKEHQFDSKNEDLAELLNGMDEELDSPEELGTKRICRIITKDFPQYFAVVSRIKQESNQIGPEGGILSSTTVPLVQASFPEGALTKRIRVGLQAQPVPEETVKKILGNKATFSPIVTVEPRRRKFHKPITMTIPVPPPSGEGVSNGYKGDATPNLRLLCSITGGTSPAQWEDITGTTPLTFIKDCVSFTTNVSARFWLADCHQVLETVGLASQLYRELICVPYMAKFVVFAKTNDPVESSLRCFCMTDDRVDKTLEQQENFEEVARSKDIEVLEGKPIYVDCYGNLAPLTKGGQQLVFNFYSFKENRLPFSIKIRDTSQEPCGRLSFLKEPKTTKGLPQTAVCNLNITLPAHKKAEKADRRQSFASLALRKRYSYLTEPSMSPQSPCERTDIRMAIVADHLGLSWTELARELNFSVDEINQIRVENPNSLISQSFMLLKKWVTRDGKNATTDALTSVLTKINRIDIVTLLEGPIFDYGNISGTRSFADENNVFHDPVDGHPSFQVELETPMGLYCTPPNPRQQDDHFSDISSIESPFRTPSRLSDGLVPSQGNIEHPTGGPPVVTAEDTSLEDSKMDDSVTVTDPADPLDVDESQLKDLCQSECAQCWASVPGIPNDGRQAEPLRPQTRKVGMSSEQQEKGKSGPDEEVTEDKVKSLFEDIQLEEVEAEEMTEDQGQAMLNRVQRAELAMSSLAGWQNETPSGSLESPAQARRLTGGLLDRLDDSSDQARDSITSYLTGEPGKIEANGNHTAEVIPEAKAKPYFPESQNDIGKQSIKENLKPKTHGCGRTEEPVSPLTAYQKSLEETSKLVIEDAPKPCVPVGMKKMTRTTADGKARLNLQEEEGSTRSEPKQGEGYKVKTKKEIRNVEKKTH

With “Homer1b/c, endogenous (from UniProt Q9Z2Y3 1-366) (natural protein)” the FRAP in dendritic spines of primary cortical neurons: mobile fraction of GFP-ankyrin-G^F1609R against GFP-ankyrin-G^WT, 200 s after photobleaching (GFP-tagged forms of the constructs) was 22.4%.
